Measurements taken from US10293027B2, “Methods for treating metabolic disorders using FGF” (Salk Institute for Biological Studies, priority 2010, dated 2019).
“Also recorded” adds a separate entry of the source.

Assays:
ob/ob diabetic mice = assay: Delivery method (s.c., i.p., i.v.) and FGF-1 blood glucose effects (Example 11); format: in vivo, mouse
Protocol: FIG. 22. Assessment of delivery method on FGF-1 blood glucose effects.
FIG. 23. Assessment of delivery method on duration of FGF-1 activity. Single subcutaneous (sc) or intravenous (iv) injection of FGF-1 (0.5 mg/kg) in ob/ob mice.
To determine if the effects of FGF-1 depend on the route of administration, we tested blood glucose levels of ob/ob mice in response to 0.5 mg/kg body weight FGF-1 delivered s.c., i.p. and i.v. PBS injections were used as controls. […] We next compared i.v. and s.c. injections for duration of the glucose normalizing effect.

ob/ob mice = assay: Glucose tolerance test after four weeks of FGF-1 administration; format: in vivo, mouse; conditions: after four weeks of 0.5 mg/kg/3 days s.c.
Protocol: Glucose tolerance tests (GTT) were conducted after overnight fasting. Mice were injected intraperitoneally (i.p.) with 1 g of glucose per/kg body weight, and blood glucose was monitored at 0, 15, 30, 60, 90, and 120 min using a OneTouch Ultra glucometer (Lifescan Inc). Insulin tolerance tests (ITT) were conducted after overnight fasting. Mice were injected i.p. with 0.5 U of insulin/kg body weight (Humulin R; Eli Lilly), and blood glucose was monitored at 0, 15, 30, 60, 90, and 120 min using a OneTouch Ultra glucometer (Lifescan Inc). Real-time metabolic analyses were conducted in an undisturbed room under 12 h/12 h light/dark cycles using a Comprehensive Lab Animal Monitoring System (Columbus Instruments).
These tests were carried out as described above.

[1] = system: diet-induced obesity mice (C57BL/6); assay: Single s.c. FGF-1 injection, blood glucose in DIO mice; format: in vivo, mouse; conditions: single s.c. injection 0.5 mg/kg
Description: FIG. 25. FGF1 effects in DIO mice.
The ob/ob model is considered to represent a very severe diabetic disease. In order to investigate the effect of FGF-1 on less severe diabetic/metabolic disorder models, we tested blood glucose levels in db/db mice and diet induced obese mice.

ob/ob male mice = assay: Daily FGF-1 or rosiglitazone treatment of ob/ob mice: fed blood glucose and body composition (Example 5); format: in vivo, mouse
Protocol: FIGS. 7A-7H. FGF-1 injection studies in rodents. (A) Fed blood glucose in ob/ob male mice treated with FGF-1 (0.5 mg/kg, s.c.), rosiglitazone (TZD, 5 mg/kg, p.o.), or vehicle. FGF-1 was administered once daily, and blood glucose levels were measured at day 0 (basal levels before FGF-1 injection), day 3, and day 6, 1 hour after injection. The values (±SE) shown are the average of the measurements of 5 animals in a group; (B) Sustained glucose lowering effects of FGF-1: Fed blood glucose levels in ob/ob mice at indicated time points after the last FGF-1 injection at day 6. (C-H): 72 hrs after the sixth dose, another dose was given and effects of FGF-1 and TZD on (C) body weight, (D) total body fat, (E) lean weight, (F) weight gain, (G) liver weight, and (H) heart weight were determined.
In Example 5, ob/ob male mice (8 wk old) were randomized into three groups and treated with daily subcutaneous (s.c.) injections of recombinant mouse FGF-1 (0.5 mg/kg in PBS), oral rosiglitazone (TZD, 5 mg/kg in 0.5% carboxymethyl cellulose), or vehicle. Blood glucose levels were measure in fed animals one hour after treatment. Total body composition analysis was performed using an EchoMRI-100™ (Echo Medical Systems, LLC).
Eight-week-old male ob/ob mice were treated with recombinant mouse FGF-1 (0.5 mg/kg/day, s.c. in 250 μl), rosiglitazone (TZD, 5 mg/kg/day, p.o. in 300 μl), or vehicle control (s.c. vehicle control 0.9% NaCl, 250 μl/mouse; p.o. vehicle control 0.5% CMC, 300 μl/mouse). Blood glucose was measured one hour after treatment at day 3 and day 6 using a standard protocol. (FIG. 7A).
Before treatment, all groups were severely hyperglycemic, as indicated by blood glucose levels of about 400 mg/dl. […] At 6 days, blood glucose levels were even further reduced to around 130-140 mg/dl for both groups. After the sixth dose, blood glucose levels were monitored for another 72 hrs. During this period, both FGF-1- and TZD-treated cohorts maintained normoglycemic levels (<140 mg/dl) for at least 48 hrs (FIG. 7B). At 72 hrs after the sixth dose, a final dose was given, and 12 hrs later, a total body composition analysis was performed by MRI followed by necropsy.

[2] = system: Glucose Transporter 1 (Glut1); assay: Glut1 expression in 3T3-L1 adipocytes; format: cell-based, mouse
Protocol: FIGS. 6A-6B. FGF-1 and rosiglitazone stimulation of Glut1 expression in 3T3-L1 adipocytes. 3T3-L1 adipocytes were treated with FGF-1 (+=50 ng/ml, ++=100 ng/ml), rosiglitazone (1 μM), or in combination. (A) mRNA (top) and protein (bottom) levels of Glucose Transporter 1 (Glut1); (B) mRNA (top) and protein (bottom) levels of Glucose Transporter 4 (Glut4).
3T3-L1 mouse pre-adipocytes were from American Type Culture Collection (ATCC, Rockville, Md.). Cells were maintained at sub-confluence in growth medium (GM) containing 10% calf serum in Dulbecco's modified Eagle's medium (DMEM) at 37° C. and 5% CO2. For standard adipocyte differentiation, cells were stimulated at 2 days post confluency (referred as day 0) with differentiation medium (DM) containing 10% fetal bovine serum (FBS), 5 μg/ml insulin, 1 μM dexamethasone, and […] 3-isobutyl-1-methylxanthine (IBMX) for 48 hours. […]
Total RNA was isolated from mouse tissue and cells using TRIzol reagent (Invitrogen). cDNA was synthesized from 1 μg of DNase-treated total RNA using SuperScript II reverse transcriptase (Invitrogen). mRNA levels were quantified by QPCR with SYBR Green (Invitrogen). Samples were run in technical triplicates, and relative mRNA levels were calculated by using the standard curve methodology and normalized against 36B4 mRNA levels in the same samples.

B1: FGF-1: recombinant mouse FGF-1 (acidic fibroblast growth factor), a secreted protein that binds heparin and FGF receptors (protein, UniProt P61148 16-155, looked up)
Fibroblast growth factor 1: FNLPLGNYKKPKLLYCSNGGHFLRILPDGTVDGTRDRSDQHIQLQLSAESAGEVYIKGTETGQYLAMDTEGLLYGSQTPNEECLFLERLEENHYNTYTSKKHAEKNWFVGLKKNGSCKRGPRTHYGQKAILFLPLPVSSD
B1 was tested, and the “acute blood glucose effect by s.c., i.p. and i.v. delivery” value (ob/ob diabetic mice; 0.5 mg/kg) was “about the same for all three injection methods”, the “time of stable glucose levels after intravenous administration” value (ob/ob diabetic mice; 0.5 mg/kg i.v., duration of the test) was “at least 60 hours” and the “duration of glucose normalizing effect, iv compared to sc” value (ob/ob diabetic mice; single injection 0.5 mg/kg) was “persist longer when administered iv as compared to sc”. For the same molecule, the “glucose tolerance (GTT)” value (ob/ob mice) was “cleared glucose more effectively than untreated controls; also recorded: enhances glucose tolerance”, the “blood glucose in diet-induced obesity mice” value ([1]; 0.5 mg/kg) was “effective for reducing blood glucose levels in both systems” and the “blood glucose in diet-induced obesity mice” value ([1]; listed as FGF1, 0.5 mg/kg) was “normalizes blood glucose”. For the same molecule, the “blood glucose levels at day three” value (ob/ob male mice; fed ob/ob male mice, one hour after treatment, FGF-1 0.5 mg/kg/day s.c., TZD 5 mg/kg/day p.o., about 400 mg/dl before treatment) was “about 200 mg/dl”, the “blood glucose (in words)” value (ob/ob male mice; ob/ob diabetic mice, FGF-1 administration) was “decreases fed blood glucose in ob/ob mice; also recorded: normalizes their glucose levels” and the fat-lean ratio (ob/ob male mice; ob/ob mice, total body composition by MRI) was “improves their fat-lean ratio”. The “expression of GLUT1 in combination with rosiglitazone” value ([2]; 3T3-L1 adipocytes, FGF-1 plus rosiglitazone (1 μM)) was “acts synergistically with rosiglitazone” and the “expression of GLUT1” value ([2]; mouse 3T3-L1 adipocytes, prolonged treatment, FGF-1 50 or 100 ng/ml) was “induces the expression of GLUT1”.
